Assay results reported in US20250121104A1 (FUSION PHARMACEUTICALS, published 2025).
Substitutions are numbered along the chain they refer to.

What was measured:
mouse cMET (recombinant) = mouse cMET (recombinant) (mouse, UniProt P16056 25-929, limits assumed); assay: ELISA, antigen coated at 1 µg/mL, antibody titrated from 10 µg/mL
Experimental: (§1) Specificity for EGFR and cMET species paralogs and closely related family members was determined by ELISA. Briefly, antigen solutions were prepared in PBS at 1 μg/mL and 50 microliters was coated onto half area ELISA assay plates. Plates were washed and blocked with 1% BSA in PBS containing 0.005% Tween-20 (PBS-T) for one hour at room temperature. […] Wells were incubated with 50 microliters of the indicated primary antibodies diluted in PBS-T in a 1:3 dilution series, starting at 10 μg/mL and ending at 0.002 μg/mL, except for the HER4 binding mAb control, MAB1131, for which the series started at 1 μg/mL. The wells were washed 4 times in PBS-T, then 50 μl of goat anti-human Fab HRP-labeled secondary antibody, diluted 1:5000 in PBS-T, was added to each well and incubated for one hour at room temperature. […] 50 microliters of TMB stop solution was added to all wells and the absorbance was read at 450 nm on a SpectraMax M5 microplate reader. Data were analyzed in the SoftMax Pro 5 software and plotted using GraphPad Prism 7 graphing software.
(§2) To determine the species cross reactivity, ELISA assays were carried out as described above.

Ron (CD136) = biological target: T1, Ron (CD136) (UniProt Q04912 25-957, limits assumed); assay: as above
T1 sequence (looked up): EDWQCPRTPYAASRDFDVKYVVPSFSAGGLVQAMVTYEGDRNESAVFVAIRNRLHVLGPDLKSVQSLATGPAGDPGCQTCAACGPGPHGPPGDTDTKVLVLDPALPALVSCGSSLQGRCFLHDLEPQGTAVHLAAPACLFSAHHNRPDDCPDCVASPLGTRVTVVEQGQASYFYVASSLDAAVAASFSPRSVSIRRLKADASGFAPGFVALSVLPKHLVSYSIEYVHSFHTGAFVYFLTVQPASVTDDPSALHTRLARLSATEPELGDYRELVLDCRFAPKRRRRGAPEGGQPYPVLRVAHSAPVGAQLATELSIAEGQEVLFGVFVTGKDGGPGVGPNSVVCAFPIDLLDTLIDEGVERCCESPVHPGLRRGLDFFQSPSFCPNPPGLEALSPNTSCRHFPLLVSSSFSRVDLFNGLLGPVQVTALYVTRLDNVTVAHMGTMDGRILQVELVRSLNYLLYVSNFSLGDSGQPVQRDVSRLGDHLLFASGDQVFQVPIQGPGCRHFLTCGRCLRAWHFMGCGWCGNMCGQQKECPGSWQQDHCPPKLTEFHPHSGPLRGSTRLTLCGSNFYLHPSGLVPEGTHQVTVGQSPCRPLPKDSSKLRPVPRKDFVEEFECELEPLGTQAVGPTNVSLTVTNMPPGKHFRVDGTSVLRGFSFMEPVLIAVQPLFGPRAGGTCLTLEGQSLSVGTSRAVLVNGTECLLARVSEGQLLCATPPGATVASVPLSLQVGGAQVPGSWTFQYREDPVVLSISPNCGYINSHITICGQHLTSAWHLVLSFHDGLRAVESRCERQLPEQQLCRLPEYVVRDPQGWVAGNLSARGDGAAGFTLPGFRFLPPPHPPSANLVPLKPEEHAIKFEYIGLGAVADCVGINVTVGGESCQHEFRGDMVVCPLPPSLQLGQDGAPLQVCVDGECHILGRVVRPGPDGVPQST
Experimental: as §1, §2

Semaphorin 3a = biological target: T2, Semaphorin 3a (UniProt Q14563 21-771, limits assumed); assay: as above
T2 sequence (looked up): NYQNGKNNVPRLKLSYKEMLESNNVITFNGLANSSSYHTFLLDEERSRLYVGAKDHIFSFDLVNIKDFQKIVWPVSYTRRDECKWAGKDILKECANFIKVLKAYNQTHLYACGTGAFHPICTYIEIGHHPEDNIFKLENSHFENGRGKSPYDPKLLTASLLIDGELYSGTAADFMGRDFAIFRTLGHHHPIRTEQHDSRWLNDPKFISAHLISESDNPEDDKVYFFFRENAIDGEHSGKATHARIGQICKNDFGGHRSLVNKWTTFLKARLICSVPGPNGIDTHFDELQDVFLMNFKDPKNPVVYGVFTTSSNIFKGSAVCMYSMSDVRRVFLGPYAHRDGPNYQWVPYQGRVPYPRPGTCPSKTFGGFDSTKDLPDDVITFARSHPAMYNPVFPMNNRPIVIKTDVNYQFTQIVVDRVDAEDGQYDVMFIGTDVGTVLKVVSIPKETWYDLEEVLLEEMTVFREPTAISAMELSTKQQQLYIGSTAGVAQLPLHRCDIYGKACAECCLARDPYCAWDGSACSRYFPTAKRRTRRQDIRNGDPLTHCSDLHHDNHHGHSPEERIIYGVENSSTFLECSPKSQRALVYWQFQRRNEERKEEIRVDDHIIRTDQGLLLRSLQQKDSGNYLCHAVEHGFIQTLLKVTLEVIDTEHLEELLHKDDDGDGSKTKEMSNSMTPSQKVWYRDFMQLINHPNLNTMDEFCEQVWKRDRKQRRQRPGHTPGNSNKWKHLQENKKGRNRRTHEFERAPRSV
Experimental: as §1, §2

[1] = biological target: c-MET receptor on the cell surface (H1975 cells) (UniProt P08581); assay: cell-based or functional assay
c-MET receptor on the cell surface (H1975 cells), sequence (P08581 25-1390): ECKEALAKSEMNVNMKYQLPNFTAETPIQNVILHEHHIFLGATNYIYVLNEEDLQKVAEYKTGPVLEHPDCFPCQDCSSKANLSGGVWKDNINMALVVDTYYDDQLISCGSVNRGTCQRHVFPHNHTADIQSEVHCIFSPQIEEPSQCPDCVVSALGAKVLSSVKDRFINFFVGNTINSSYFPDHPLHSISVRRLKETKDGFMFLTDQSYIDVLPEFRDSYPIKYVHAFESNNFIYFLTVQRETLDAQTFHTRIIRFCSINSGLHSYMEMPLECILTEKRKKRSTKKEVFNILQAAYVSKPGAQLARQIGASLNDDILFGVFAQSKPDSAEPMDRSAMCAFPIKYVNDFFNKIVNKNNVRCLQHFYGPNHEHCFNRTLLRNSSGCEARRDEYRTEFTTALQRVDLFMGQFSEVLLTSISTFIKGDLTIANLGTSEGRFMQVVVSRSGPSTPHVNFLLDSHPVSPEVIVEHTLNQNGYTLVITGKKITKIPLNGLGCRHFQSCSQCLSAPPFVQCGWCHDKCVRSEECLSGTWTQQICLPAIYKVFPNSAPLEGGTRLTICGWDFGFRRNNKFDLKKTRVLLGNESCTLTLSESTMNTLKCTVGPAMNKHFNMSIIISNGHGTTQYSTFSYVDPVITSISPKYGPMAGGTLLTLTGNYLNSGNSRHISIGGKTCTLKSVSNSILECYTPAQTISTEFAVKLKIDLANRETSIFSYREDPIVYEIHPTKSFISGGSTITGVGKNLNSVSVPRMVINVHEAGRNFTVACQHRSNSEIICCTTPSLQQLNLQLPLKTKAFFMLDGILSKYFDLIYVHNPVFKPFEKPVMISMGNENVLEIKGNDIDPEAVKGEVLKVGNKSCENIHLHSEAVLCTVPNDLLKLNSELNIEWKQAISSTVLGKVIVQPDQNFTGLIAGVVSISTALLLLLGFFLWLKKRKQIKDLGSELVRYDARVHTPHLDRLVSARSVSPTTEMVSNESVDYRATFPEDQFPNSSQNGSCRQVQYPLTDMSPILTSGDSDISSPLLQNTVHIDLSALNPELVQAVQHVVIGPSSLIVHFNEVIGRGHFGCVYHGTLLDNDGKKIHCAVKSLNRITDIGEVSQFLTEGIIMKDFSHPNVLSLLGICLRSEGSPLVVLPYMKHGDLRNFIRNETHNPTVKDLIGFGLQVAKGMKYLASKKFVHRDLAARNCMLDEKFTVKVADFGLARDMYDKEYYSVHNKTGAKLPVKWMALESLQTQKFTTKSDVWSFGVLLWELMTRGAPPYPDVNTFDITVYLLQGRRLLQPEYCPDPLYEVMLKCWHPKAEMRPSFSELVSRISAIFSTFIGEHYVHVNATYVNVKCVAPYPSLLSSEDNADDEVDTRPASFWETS

[2] = biological target: T3, EGFR and cMET co-expressed on the surface of tumour cell lines (HCC827, HT29, H441, H1975) (UniProt P00533 25-1210; P08581 25-1390); assay: saturation radioligand binding on H441 cells, 4 C, specific binding (4 µM cold antibody for non-specific), single-site fit
T3 construct: whole, on cells; Target of the bispecific molecules on cells that carry both receptors; the cell line of each value stands under assay; also called EGFR and c-MET expressing cell line; EGFR and/or cMET expressing cell lines
Experimental: (§3) The purpose of this assay was to ensure that the radioimmunoconjugates maintained the binding characteristics of the native antibody in EGFR and/or cMET expressing cell lines including HT29, H441, HT29, HCC827, and H1975. One day prior to the experiment, cells (1.5-2×10⁵) were seeded in 48-well microplates in 500 μL supplemented medium. At the start of the assay, cells were washed with PBS once and then treated with increasing concentrations of Compound E (0.05 nM to 100 nM) in the absence and presence of 4 μM cold antibody [total binding (TB) and non-specific binding (NSB) respectively]. Plates were incubated at 4° C. for about 3 hours with mild shaking. Following incubation, the cells were washed twice with PBS and were then lysed with 1% Triton-X-100. The lysates were transferred to gamma counting tubes and run along with Compound E standards on the Wizard 1470 gamma counter to determine the amount of radioactivity in counts per minute (CPM) for each lysate. The remaining lysate from each well (25 μL) was used for analyzing the protein content using a standard protein quantification assay.

[3] = biological target: T3, EGFR and cMET co-expressed on the …; assay: saturation radioligand binding on HT29 cells, 4 C, specific binding (4 µM cold antibody for non-specific), single-site fit
Experimental: as §3

[4] = biological target: T3, EGFR and cMET co-expressed on the …; assay: saturation radioligand binding on H1975 cells, 4 C, specific binding (4 µM cold antibody for non-specific), single-site fit
Experimental: as §3

[5] = biological target: T3, EGFR and cMET co-expressed on the …; assay: saturation radioligand binding on HCC827 cells, 4 C, specific binding (4 µM cold antibody for non-specific), single-site fit
Experimental: as §3

[6] = biological target: T4, cynomolgus monkey cMET (recombinant, soluble monomeric) (cynomolgus monkey, UniProt A0M8R7 25-932 (Papio anubis entry)); assay: SPR (BIAcore T200), antibody captured on anti-human IgG, soluble monomeric antigen as analyte, 25 C, 1:1 fit
T4 construct: also called cyno cMET
T4 sequence (A0M8R7 25-932 S170N/I621T): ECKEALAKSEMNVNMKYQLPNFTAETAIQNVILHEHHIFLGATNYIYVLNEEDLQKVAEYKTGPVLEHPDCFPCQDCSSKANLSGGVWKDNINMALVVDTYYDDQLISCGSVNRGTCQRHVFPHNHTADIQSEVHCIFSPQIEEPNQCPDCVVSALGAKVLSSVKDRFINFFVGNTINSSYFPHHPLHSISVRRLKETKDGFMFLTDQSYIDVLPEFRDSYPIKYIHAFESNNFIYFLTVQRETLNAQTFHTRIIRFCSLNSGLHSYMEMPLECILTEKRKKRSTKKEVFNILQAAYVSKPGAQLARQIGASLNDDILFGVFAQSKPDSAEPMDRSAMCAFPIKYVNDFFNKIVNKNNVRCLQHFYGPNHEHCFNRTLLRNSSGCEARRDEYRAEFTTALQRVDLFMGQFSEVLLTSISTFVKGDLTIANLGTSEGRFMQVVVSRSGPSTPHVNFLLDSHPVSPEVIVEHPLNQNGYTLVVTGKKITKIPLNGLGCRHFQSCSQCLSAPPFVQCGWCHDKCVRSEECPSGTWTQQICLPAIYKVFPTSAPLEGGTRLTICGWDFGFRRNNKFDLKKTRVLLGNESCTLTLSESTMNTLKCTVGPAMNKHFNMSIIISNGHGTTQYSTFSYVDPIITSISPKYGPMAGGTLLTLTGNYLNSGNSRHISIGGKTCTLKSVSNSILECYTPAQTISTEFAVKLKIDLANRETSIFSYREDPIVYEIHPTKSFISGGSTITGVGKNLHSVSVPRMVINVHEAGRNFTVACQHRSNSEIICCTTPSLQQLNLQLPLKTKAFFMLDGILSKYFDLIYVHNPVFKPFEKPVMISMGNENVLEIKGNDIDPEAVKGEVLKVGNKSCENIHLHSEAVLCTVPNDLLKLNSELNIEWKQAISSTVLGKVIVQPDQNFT
Experimental: (§4) Mouse anti-human IgG was immobilized on a CM4 sensor chip with a final surface density of ˜2000 resonance units (RUs). A reference flow cell surface was also prepared on this sensor chip using identical immobilization protocol. Test and control article antibodies were prepared at 5-20 nM in instrument buffer (HBS-EP buffer; 0.01M HEPES, pH 7.4, 0.15M NaCl, 3 mM EDTA, and 0.005% P-20), along with 3-fold serial dilutions of purified EGFR (0.27-200 nM human, 0.4-900 nM cyno, and 4-1000 nM murine) or cMET proteins (0.27-66 nM human and 0.27-22 nM cyno) in instrument buffer. A sequential approach was utilized for kinetic measurements. Antibodies were first injected over the capture surface, at a flow rate of 10 μL/minute. Once the binding of the captured antibody stabilized, a single concentration of the analyte was injected over both capture and reference surfaces, at a flow rate of 75 μL/minute. The resulting binding response curves yielded the association phase data. Following the injection of analyte, the flow was then switched back to instrument buffer for 15 minutes to permit the collection of dissociation phase data, followed by a 1-minute pulse of 10 mM glycine, pH 1.5, to regenerate the antibody-captured surface on the chip. Binding responses against test and control article antibodies were recorded from duplicate injections of each concentration of analyte. In addition, several buffer injections were interspersed throughout the injection series. Select buffer injections were used along with the reference cell responses to correct the raw data sets for injection artifacts and/or nonspecific binding interactions, commonly referred to as “double referencing”. Corrected binding data were globally fit to a 1:1 binding model (Biacore T200 Evaluation software 2.0, GE Healthcare, Pittsburgh, PA).
(§5) Kinetic measurements to soluble monomeric forms of EGFR and cMET were performed using a BIACore instrument.

[7] = biological target: T5, human EGFR (recombinant, soluble monomeric) (human, UniProt P00533 25-645); assay: as above
T5 construct: also called EGFR antigen
Experimental: as §4, §5

[8] = biological target: T6, cynomolgus monkey EGFR (recombinant, soluble monomeric) (cynomolgus monkey, UniProt P55245 25-645 (rhesus entry)); assay: as above
T6 construct: also called cyno EGFR
Experimental: as §4, §5

mouse EGFR (recombinant) = biological target: T7, mouse EGFR (recombinant) (mouse, UniProt Q01279 25-647); assay: as above
T7 construct: also called murine EGFR
Experimental: as §4, §5

[9] = biological target: T8, human cMET (recombinant, soluble monomeric) (human, UniProt P08581 25-932); assay: as above
T8 construct: also called cMET antigen; His-tagged cMET antigen
T8 sequence (P08581 25-932): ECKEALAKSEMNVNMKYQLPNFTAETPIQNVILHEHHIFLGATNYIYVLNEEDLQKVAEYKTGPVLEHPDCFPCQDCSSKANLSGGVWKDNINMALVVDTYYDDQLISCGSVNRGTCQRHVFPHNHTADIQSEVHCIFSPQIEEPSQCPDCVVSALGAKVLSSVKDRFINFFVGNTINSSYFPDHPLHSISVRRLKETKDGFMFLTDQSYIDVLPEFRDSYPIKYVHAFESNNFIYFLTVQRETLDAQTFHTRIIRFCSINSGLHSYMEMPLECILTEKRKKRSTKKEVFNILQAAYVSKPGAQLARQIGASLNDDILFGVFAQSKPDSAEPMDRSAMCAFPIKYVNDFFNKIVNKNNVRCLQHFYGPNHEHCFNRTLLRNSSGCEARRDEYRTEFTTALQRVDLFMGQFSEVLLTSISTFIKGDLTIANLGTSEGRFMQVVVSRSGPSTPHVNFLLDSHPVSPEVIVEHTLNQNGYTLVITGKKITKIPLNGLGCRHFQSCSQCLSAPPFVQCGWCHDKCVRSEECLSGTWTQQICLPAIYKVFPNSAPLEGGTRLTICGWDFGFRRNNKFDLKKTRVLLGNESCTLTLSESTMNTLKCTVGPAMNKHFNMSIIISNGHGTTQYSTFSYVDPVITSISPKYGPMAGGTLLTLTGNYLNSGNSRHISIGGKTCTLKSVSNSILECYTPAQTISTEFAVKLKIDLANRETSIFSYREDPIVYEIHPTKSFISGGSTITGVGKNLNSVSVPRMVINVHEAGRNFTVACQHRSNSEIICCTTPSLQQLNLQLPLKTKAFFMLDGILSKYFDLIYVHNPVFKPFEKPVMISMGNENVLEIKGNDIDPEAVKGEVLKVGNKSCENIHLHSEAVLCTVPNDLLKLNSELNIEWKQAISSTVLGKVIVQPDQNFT
Experimental: as §4, §5

mouse cMET (recombinant), sequence (P16056 25-929 limits assumed): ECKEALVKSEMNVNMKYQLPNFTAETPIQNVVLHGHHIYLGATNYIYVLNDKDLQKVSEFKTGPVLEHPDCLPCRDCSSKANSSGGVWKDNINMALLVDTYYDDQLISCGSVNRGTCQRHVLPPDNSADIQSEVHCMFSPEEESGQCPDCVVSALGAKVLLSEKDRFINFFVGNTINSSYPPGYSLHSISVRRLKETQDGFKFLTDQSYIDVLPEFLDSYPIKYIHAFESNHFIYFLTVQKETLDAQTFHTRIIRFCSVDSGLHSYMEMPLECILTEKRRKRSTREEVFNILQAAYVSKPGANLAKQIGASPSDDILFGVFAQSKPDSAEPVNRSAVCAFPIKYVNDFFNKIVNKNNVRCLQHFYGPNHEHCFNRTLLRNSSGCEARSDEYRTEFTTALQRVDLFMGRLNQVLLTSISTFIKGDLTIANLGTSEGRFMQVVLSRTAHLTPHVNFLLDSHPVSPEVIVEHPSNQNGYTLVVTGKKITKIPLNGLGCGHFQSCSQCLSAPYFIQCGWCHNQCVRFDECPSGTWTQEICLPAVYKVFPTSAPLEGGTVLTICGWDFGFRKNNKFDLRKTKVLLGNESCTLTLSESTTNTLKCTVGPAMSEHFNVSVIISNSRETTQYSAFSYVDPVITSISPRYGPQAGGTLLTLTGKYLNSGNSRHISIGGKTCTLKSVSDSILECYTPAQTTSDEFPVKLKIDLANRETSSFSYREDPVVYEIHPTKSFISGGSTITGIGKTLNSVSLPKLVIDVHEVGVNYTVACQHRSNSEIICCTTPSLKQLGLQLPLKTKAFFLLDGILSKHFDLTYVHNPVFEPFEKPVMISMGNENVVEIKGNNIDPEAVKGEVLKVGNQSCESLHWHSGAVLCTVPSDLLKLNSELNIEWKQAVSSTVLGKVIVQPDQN

B1: QD6 IgG (antibody, V domains shown)
VH: QVQLVQSGAEVKKPGSSVKVSCKASGGTFSDNDFSWVRQAPGQGLEWMGAIVAVVRTETYAQKFQDRVKITADISTRTTYMELSSLRSEDTAVYYCARRLMSAISGPGAPLLMWGQGTLVTVSS
VL: QSALTQPRSVSGSPGQSVTISCTGTSSDVGGYNYVSWYQQHPGKAPKLMIYDVSERPSGVPDRFSGSKSGNTASLTISGLQAEDEADYYCFSYTSSDTLEIFGGGTKLTVL
notes: also called anti-EGFR antibody clone QD6
B1: no binding (tested: 10 µg/mL) (mouse cMET (recombinant)); no binding (tested: 10 µg/mL) (Ron (CD136)); no binding (tested: 10 µg/mL) (Semaphorin 3a).

B2: B09/IgG single-arm control antibody (bispecific antibody, part only; not given: non-binding control arm, V domains shown, part only)
VH: QVQLVQSGAEVKKPGASVKVSCKASGYTFTDYYIHWVRQATGQGLEWMGWMNPNSGNTGYAQKFQGRVTMTRDTSISTAYMELSSLRSEDTAVYYCARGQGYTHSWGQGTMVTVSS
VL: DIQMTQSPSTLSASVGDRVTITCRASEGIYHWLAWYQQKPGKAPKLLIYKASSLASGVPSRFSGSGSGTEFTLTISSLQPDDFATYYCQQYSNYPPTFGGGTKLEIK
B2 was tested, and the cytoplasmic intensity (AlexaFluor647, confocal microscopy, H1975 cells): fold higher for RAA22/B09 DuetMab than for B09-IgG [1] was 4.7 fold.

B3: Compound E, [177Lu]-Compound C-anti-EGFR-cMET conjugate (bispecific antibody, V domains shown)
VH 1: B1 VH with V55F
VL 1: B1 VL with E55K, F91S
VH 2: B2 VH
VL 2: B2 VL
modifications: 177Lu-DOTA chelate-linker (Compound C) on lysine side chains, sites not stated; 177Lu-DOTA chelate-linker (Compound C) on lysine side chains, sites not stated; chelate-to-antibody ratio 5.3 for the whole antibody
notes: also called [177Lu]-DOTA-anti-EGFR-cMET
In the case of B3, the Kd [2] is reported as roughly 15.5 nM, the Kd [3] is reported as roughly 5.7 nM and the Kd [4] is reported as roughly 6 nM. The Kd [5] was roughly 9.9 nM.

B4: QD6/B09-57 DuetMab (bispecific antibody, V domains shown)
VH 1: B1 VH
VL 1: B1 VL
VH 2: B2 VH
VL 2: B2 VL
notes: also called QD6/B09 DuetMab; QD6/B09-AlexaFluor647
B4: no binding (tested: 10 µg/mL) (mouse cMET (recombinant)); no binding (tested: 10 µg/mL) (Ron (CD136)); no binding (tested: 10 µg/mL) (Semaphorin 3a). For the same binder, the Kd [6] was 2.2 nM, the koff [6] was 0.00206 s⁻¹ and the kon [6] was 958000 M⁻¹ s⁻¹. The Kd [7] was 5.9 nM, the koff [7] was 0.000374 s⁻¹ and the kon [7] was 63500 M⁻¹ s⁻¹. For the same binder, the Kd [8] was 2.8 nM, the koff [8] was 0.000585 s⁻¹ and the kon [8] was 210000 M⁻¹ s⁻¹. The Kd (mouse EGFR (recombinant)) was 6.2 nM, the koff (mouse EGFR (recombinant)) was 0.00078 s⁻¹ and the kon (mouse EGFR (recombinant)) was 126000 M⁻¹ s⁻¹. It also gave a Kd [9] of 1.6 nM, a koff [9] of 0.000696 s⁻¹ and a kon [9] of 425000 M⁻¹ s⁻¹.
